Measured values taken from patent US20250019439A1 (Adimab, published 2025).

Tests used:
ADI-26906 IgG = target: T1, ADI-26906 IgG; experiment: SPR Carterra avidity, yeast anti-ID, *koff limit
T1 construct: anti-CD3 IgG
Outline: (§1)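 Goat anti-human Fc was amine-coupled to an HC30M sensor chip, then anti-CD3 antibodies at 100 nM were flowed over discrete spots for 5 min. Anti-idiotype antibodies were run in non-regenerative kinetic cycles at 25° C in HBSTE, with 300s dissociation. Blank-subtracted sensorgrams were fitted 1:1.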

ADI-76357 = target: T2, ADI-76357; experiment: SPR Carterra avidity, yeast anti-ID, *koff limit
T2 construct: anti-CD3 antibody made in CHO cells, captured by anti-human Fc
Outline: as §1

ADI-22523 Fab = target: T3, ADI-22523 Fab; experiment: BLI; tip anti-ID IgG, solution ADI-22523 Fab
T3 construct: anti-CD3 Fab by papain digestion of the IgG
Outline: (§2)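 Sensors carrying captured anti-ID IgG were equilibrated 30 min in assay buffer before a 60 s baseline. Equilibrium KD was taken as koff/kon from a 1:1 model.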

ADI-22523 IgG = target: T4, ADI-22523 IgG; experiment: BLI; tip anti-ID IgG, solution ADI-22523 IgG
T4 construct: anti-CD3 IgG
Outline: as §2

ADI-26924 = target: T5, ADI-26924; experiment: SPR Carterra avidity, yeast anti-ID
T5 construct: anti-CD3 antibody made in CHO cells, captured by anti-human Fc
Outline: as §1

ADI-76359 = target: T6, ADI-76359; experiment: SPR Carterra avidity, yeast anti-ID
T6 construct: anti-CD3 antibody made in CHO cells, captured by anti-human Fc
Outline: as §1

ADI-76361 = target: T7, ADI-76361; experiment: SPR Carterra avidity, yeast anti-ID
T7 construct: anti-CD3 antibody made in CHO cells, captured by anti-human Fc
Outline: as §1

ADI-76358 = target: T8, ADI-76358; experiment: SPR Carterra avidity, yeast anti-ID
T8 construct: anti-CD3 antibody made in CHO cells, captured by anti-human Fc
Outline: as §1

ADI-74965 = target: T9, ADI-74965; experiment: SPR Carterra avidity, yeast anti-ID
T9 construct: pH-dependent anti-CD3 antibody made in CHO cells
Outline: as §1

ADI-26919 = target: T10, ADI-26919; experiment: SPR Carterra avidity, yeast anti-ID
T10 construct: anti-CD3 antibody made in CHO cells, captured by anti-human Fc
Outline: as §1

ADI-48576 = target: T11, ADI-48576; experiment: SPR Carterra avidity, yeast anti-ID
T11 construct: pH-dependent anti-CD3 antibody made in CHO cells
Outline: as §1

ADI-76362 = target: T12, ADI-76362; experiment: SPR Carterra avidity, yeast anti-ID
T12 construct: anti-CD3 antibody made in CHO cells, captured by anti-human Fc
Outline: as §1

ADI-76360 = target: T13, ADI-76360; experiment: SPR Carterra avidity, yeast anti-ID
T13 construct: anti-CD3 antibody made in CHO cells, captured by anti-human Fc
Outline: as §1

ADI-26913 IgG = target: T14, ADI-26913 IgG; experiment: SPR Carterra avidity, yeast anti-ID
T14 construct: anti-CD3 IgG
Outline: as §1

ADI-26916 IgG = target: T15, ADI-26916 IgG; experiment: SPR Carterra avidity, yeast anti-ID
T15 construct: anti-CD3 IgG
Outline: as §1

ADI-26943 = target: T16, ADI-26943; experiment: SPR Carterra avidity, yeast anti-ID
T16 construct: anti-CD3 antibody made in CHO cells, captured by anti-human Fc
Outline: as §1

ADI-48592 = target: T17, ADI-48592; experiment: SPR Carterra avidity, yeast anti-ID
T17 construct: pH-dependent anti-CD3 antibody made in CHO cells
Outline: as §1

ADI-67447 = target: T18, ADI-67447; experiment: SPR Carterra avidity, yeast anti-ID
T18 construct: anti-CD3 antibody made in CHO cells, captured by anti-human Fc
Outline: as §1

ADI-26920 IgG = target: T19, ADI-26920 IgG; experiment: SPR Carterra avidity, yeast anti-ID
T19 construct: anti-CD3 IgG
Outline: as §1

ADI-74966 = target: T20, ADI-74966; experiment: SPR Carterra avidity, yeast anti-ID
T20 construct: pH-dependent anti-CD3 antibody made in CHO cells
Outline: as §1

ADI-26921 IgG = target: T21, ADI-26921 IgG; experiment: SPR Carterra avidity, yeast anti-ID
T21 construct: anti-CD3 IgG
Outline: as §1

ADI-67450 = target: T22, ADI-67450; experiment: SPR Carterra avidity, yeast anti-ID
T22 construct: anti-CD3 antibody made in CHO cells, captured by anti-human Fc
Outline: as §1

ADI-74968 = target: T23, ADI-74968; experiment: SPR Carterra avidity, yeast anti-ID
T23 construct: pH-dependent anti-CD3 antibody made in CHO cells
Outline: as §1

ADI-74967 = target: T24, ADI-74967; experiment: SPR Carterra avidity, yeast anti-ID
T24 construct: pH-dependent anti-CD3 antibody made in CHO cells
Outline: as §1

ADI-26912 = target: T25, ADI-26912; experiment: SPR Carterra avidity, yeast anti-ID
T25 construct: anti-CD3 antibody made in CHO cells, captured by anti-human Fc
Outline: as §1

ADI-70327 = target: T26, ADI-70327; experiment: SPR Carterra, yeast anti-ID
T26 construct: anti-CD3 antibody made in CHO cells, captured by anti-human Fc
Outline: as §1

ADI-26909 = target: T27, ADI-26909; experiment: SPR Carterra, yeast anti-ID
T27 construct: anti-CD3 antibody made in CHO cells, captured by anti-human Fc
Outline: as §1

ADI-67445 = target: T28, ADI-67445; experiment: SPR Carterra, yeast anti-ID
T28 construct: anti-CD3 antibody made in CHO cells, captured by anti-human Fc
Outline: as §1

ADI-48587 = target: T29, ADI-48587; experiment: SPR Carterra, yeast anti-ID
T29 construct: pH-dependent anti-CD3 antibody made in CHO cells
Outline: as §1

CTL-62223 = target: T30, CTL-62223; experiment: SPR Carterra, yeast anti-ID
T30 construct: also called mosunetuzumab
Outline: as §1

ADI-26915 = target: T31, ADI-26915; experiment: SPR Carterra, yeast anti-ID
T31 construct: anti-CD3 antibody made in CHO cells, captured by anti-human Fc
Outline: as §1

ADI-50024 = target: T32, ADI-50024; experiment: SPR Carterra, yeast anti-ID
T32 construct: anti-CD3 antibody made in CHO cells, captured by anti-human Fc
Outline: as §1

ADI-70330 = target: T33, ADI-70330; experiment: SPR Carterra, yeast anti-ID
T33 construct: anti-CD3 antibody made in CHO cells, captured by anti-human Fc
Outline: as §1

CTL-62240 = target: T34, CTL-62240; experiment: SPR Carterra, yeast anti-ID
T34 construct: also called ONO-4685
Outline: as §1

CTL-62228 = target: T35, CTL-62228; experiment: SPR Carterra, yeast anti-ID
T35 construct: also called glofitamab
Outline: as §1

ADI-48650 = target: T36, ADI-48650; experiment: SPR Carterra, yeast anti-ID
T36 construct: pH-dependent anti-CD3 antibody made in CHO cells
Outline: as §1

ADI-70326 = target: T37, ADI-70326; experiment: SPR Carterra, yeast anti-ID
T37 construct: anti-CD3 antibody made in CHO cells, captured by anti-human Fc
Outline: as §1

CTL-62227 = target: T38, CTL-62227; experiment: SPR Carterra, yeast anti-ID
T38 construct: also called odronextamab
Outline: as §1

T32 sequence (VH, as listed by the source limits assumed, chain 1 of 2): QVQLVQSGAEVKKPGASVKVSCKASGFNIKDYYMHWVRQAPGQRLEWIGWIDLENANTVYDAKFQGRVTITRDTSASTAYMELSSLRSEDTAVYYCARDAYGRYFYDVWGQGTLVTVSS
T32 sequence (VL, as listed by the source limits assumed, chain 2 of 2): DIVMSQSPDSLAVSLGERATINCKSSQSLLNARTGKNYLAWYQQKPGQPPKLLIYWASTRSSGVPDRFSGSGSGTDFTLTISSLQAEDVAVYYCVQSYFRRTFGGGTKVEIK
T1 sequence (VH, as listed by the source limits assumed, chain 1 of 2): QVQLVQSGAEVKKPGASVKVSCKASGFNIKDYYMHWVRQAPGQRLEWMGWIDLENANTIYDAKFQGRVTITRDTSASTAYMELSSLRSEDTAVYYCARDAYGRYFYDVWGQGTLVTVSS
T1 sequence (VL, as listed by the source limits assumed, chain 2 of 2): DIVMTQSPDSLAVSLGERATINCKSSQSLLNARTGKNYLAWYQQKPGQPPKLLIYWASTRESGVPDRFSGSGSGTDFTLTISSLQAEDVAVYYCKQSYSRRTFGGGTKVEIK
T10 sequence (VL, as listed by the source limits assumed, chain 2 of 2): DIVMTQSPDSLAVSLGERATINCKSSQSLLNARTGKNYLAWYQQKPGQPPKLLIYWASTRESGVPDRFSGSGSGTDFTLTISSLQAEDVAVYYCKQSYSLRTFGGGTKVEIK
T21 sequence (VH, as listed by the source limits assumed, chain 1 of 2): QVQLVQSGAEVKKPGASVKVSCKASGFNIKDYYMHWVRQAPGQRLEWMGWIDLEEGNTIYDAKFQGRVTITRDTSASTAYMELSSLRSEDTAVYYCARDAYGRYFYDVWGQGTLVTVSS
T3 sequence (VH, as listed by the source limits assumed, chain 1 of 2): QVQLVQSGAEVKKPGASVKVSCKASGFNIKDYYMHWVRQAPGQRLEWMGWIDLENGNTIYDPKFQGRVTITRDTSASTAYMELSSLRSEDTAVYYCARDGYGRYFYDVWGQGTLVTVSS
T3 sequence (VL, as listed by the source limits assumed, chain 2 of 2): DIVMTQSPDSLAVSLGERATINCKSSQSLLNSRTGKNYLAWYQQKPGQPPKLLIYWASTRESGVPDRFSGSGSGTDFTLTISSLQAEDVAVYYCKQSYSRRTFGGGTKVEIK
T28 sequence (VH, as listed by the source limits assumed, chain 1 of 2): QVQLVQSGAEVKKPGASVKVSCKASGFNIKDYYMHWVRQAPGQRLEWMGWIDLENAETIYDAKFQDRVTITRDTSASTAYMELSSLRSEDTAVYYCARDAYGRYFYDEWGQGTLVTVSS
T31 sequence (VH, as listed by the source, chain 1 of 2): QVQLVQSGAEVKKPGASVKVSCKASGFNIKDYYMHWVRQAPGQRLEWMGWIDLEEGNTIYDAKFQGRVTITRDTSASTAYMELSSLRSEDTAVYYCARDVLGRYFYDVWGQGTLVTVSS
T15 sequence (VH, as listed by the source, chain 1 of 2): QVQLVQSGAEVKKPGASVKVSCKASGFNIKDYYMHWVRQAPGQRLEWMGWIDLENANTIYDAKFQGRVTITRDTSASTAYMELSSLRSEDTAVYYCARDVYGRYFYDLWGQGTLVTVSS
T16 sequence (VH, as listed by the source, chain 1 of 2): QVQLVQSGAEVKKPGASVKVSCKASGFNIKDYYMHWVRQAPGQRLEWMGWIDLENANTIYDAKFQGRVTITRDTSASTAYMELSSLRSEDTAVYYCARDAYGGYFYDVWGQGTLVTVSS
T16 sequence (VL, as listed by the source, chain 2 of 2): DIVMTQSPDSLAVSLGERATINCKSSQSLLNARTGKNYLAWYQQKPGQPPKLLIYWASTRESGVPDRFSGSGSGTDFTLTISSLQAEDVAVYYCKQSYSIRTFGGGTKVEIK
T36 sequence (VH, as listed by the source, chain 1 of 2): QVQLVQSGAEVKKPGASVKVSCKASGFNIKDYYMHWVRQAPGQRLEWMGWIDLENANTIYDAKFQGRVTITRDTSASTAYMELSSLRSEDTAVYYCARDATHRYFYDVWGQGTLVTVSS
T36 sequence (VL, as listed by the source, chain 2 of 2): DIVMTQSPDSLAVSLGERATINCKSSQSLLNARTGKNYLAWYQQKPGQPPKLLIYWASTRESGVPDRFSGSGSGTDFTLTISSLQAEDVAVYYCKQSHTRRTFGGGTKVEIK
T23 sequence (VH, as listed by the source, chain 1 of 2): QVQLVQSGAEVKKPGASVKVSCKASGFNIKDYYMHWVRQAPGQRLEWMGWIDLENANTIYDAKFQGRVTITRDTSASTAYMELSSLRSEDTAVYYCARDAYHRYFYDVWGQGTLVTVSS
T23 sequence (VL, as listed by the source, chain 2 of 2): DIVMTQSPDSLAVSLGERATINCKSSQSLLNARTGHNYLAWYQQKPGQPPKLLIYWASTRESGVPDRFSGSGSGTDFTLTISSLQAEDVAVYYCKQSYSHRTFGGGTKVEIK
T9 sequence (VL, as listed by the source, chain 2 of 2): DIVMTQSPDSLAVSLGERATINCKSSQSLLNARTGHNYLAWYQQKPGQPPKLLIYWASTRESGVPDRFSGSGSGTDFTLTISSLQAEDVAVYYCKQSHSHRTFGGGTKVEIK
T30 sequence (VH, as listed by the source, chain 1 of 2): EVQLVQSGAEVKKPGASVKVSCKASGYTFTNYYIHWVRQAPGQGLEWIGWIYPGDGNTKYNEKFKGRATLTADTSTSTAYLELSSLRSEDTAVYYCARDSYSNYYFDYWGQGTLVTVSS
T30 sequence (VL, as listed by the source, chain 2 of 2): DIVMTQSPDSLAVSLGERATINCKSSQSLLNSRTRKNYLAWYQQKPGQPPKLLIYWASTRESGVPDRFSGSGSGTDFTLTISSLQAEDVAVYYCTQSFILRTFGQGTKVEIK
T33 sequence (VH, as listed by the source limits assumed, chain 1 of 2): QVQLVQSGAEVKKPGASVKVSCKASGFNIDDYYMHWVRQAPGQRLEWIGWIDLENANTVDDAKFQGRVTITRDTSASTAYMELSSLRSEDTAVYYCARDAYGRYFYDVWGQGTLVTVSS
T19 sequence (VH, as listed by the source limits assumed, chain 1 of 2): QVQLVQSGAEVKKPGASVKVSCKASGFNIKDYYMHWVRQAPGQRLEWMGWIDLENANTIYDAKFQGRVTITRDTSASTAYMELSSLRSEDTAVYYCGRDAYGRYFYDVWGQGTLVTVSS
T17 sequence (VH, as listed by the source, chain 1 of 2): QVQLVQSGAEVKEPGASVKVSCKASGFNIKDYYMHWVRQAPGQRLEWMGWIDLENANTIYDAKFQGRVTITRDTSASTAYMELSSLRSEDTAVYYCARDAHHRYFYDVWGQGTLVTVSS
T17 sequence (VL, as listed by the source, chain 2 of 2): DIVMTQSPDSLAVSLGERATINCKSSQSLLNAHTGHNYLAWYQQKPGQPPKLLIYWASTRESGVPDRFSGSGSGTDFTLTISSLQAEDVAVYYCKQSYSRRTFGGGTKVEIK
T22 sequence (VH, as listed by the source limits assumed, chain 1 of 2): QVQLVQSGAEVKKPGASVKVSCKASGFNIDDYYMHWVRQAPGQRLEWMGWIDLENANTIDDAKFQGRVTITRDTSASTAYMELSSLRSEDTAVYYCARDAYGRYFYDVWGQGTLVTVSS

B1: ADI-34143 (antibody, V domains shown)
VH: EVQLLESGGGLVQPGGSLRLSCAASGFTFSSYAMSWVRQAPGKGLEWVSTISGSGGSTYYADSVKGRFTISRDNSKNTLYLQMNSLRAEDTAVYYCARLGGRRGSGSSYYYYYGMDVWGQGTTVTVSS
VL: not shown
notes: anti-ID IgG
- Kd (ADI-26906 IgG): 13 nM
- Kd (ADI-76357): 6.6 nM
- Kd (ADI-22523 Fab): 18.2 nM
- Kd (ADI-22523 IgG): 2.98 nM
- Kd (ADI-26924): 20 nM
- Kd (ADI-76359): 20 nM
- binding result (ADI-76361): binds
- binding result (ADI-76358): binds
- binding result (ADI-74965): binds
- Kd (ADI-26919): 24 nM
- binding result (ADI-48576): binds
- binding result (ADI-76362): binds
- binding result (ADI-76360): binds
- Kd (ADI-26913 IgG): 23 nM
- Kd (ADI-26916 IgG): 43 nM
- Kd (ADI-26943): 11 nM
- binding result (ADI-48592): binds
- Kd (ADI-67447): 33 nM
- Kd (ADI-26920 IgG): 35 nM
- Kd (ADI-74966): 36 nM
- binding result (ADI-26921 IgG): binds
- binding result (ADI-67450): binds
- Kd (ADI-74968): 130 nM
- binding result (ADI-74967): binds
- binding result (ADI-26912): binds
- binding result (ADI-70327): no binding (tested: up to 200 nM)
- binding result (ADI-26909): no binding (tested: up to 200 nM)
- binding result (ADI-67445): no binding (tested: up to 200 nM)
- binding result (ADI-48587): no binding (tested: up to 200 nM)
- binding result (CTL-62223): no binding (tested: up to 200 nM)
- binding result (ADI-26915): no binding (tested: up to 200 nM)
- binding result (ADI-50024): no binding (tested: up to 200 nM)
- binding result (ADI-70330): no binding (tested: up to 200 nM)
- binding result (CTL-62240): no binding (tested: up to 200 nM)
- binding result (CTL-62228): no binding (tested: up to 200 nM)
- binding result (ADI-48650): no binding (tested: up to 200 nM)
- binding result (ADI-70326): no binding (tested: up to 200 nM)
- binding result (CTL-62227): no binding (tested: up to 200 nM)
